The source of these data is the Human Domainome abundance scans (Beltran et al. 2025).

B1: Histidine--tRNA ligase, cytoplasmic, residues 8 to 45; numbered along this chain, P12081 (parent)
chain: EELVKLQGERVRGLKQQKASAELIEEEVAKLLKLKAQL

± gives the uncertainty stated by the source.

Variants of B1 are the subject of the data set. Kind of data set: abundance fitness (aPCA) (normalised: wild type 0, dead -1); higher = more abundant; growth selection in yeast, the domain comes from the species named. The following applies: Homo sapiens.
As for EELVKLQGERVRMLKQQKASAELIEEEVAKLLKLKAQL [G13M], the abundance fitness is 0.324 ± 0.099.
The result for EELVKLQGERVRYLKQQKASAELIEEEVAKLLKLKAQL [G13Y] reads -0.136 ± 0.15; that for EELVKLQGERVRILKQQKASAELIEEEVAKLLKLKAQL [G13I], 0.188 ± 0.11; that for EELVKLQGERVRLLKQQKASAELIEEEVAKLLKLKAQL [G13L], 0.197 ± 0.079.
To EELVKLQGERVRVLKQQKASAELIEEEVAKLLKLKAQL [G13V] belongs 0.198 ± 0.08.
To EELVKLQGERVRDLKQQKASAELIEEEVAKLLKLKAQL [G13D] belongs 0.079 ± 0.11.
In the case of EELVKLQGERVRRLKQQKASAELIEEEVAKLLKLKAQL [G13R], the abundance fitness is 0.005 ± 0.072.
To EELVKLQGERVRTLKQQKASAELIEEEVAKLLKLKAQL [G13T] belongs 0.218 ± 0.083; to EELVKLQGERVRFLKQQKASAELIEEEVAKLLKLKAQL [G13F], 0.079 ± 0.11.
To EELVKLQGERVRCLKQQKASAELIEEEVAKLLKLKAQL [G13C] belongs 0.271 ± 0.085.
With EELVKLQGERVRHLKQQKASAELIEEEVAKLLKLKAQL [G13H], the abundance fitness was 0.079 ± 0.094.
To EELVKLQGERVRPLKQQKASAELIEEEVAKLLKLKAQL [G13P] belongs -0.237 ± 0.083.
To EELVKLQGERVRALKQQKASAELIEEEVAKLLKLKAQL [G13A] belongs 0.23 ± 0.083; to EELVKLQGERVRQLKQQKASAELIEEEVAKLLKLKAQL [G13Q], 0.253 ± 0.1; to EELVKLQGERVRWLKQQKASAELIEEEVAKLLKLKAQL [G13W], 0.055 ± 0.082.
Take EELVKLQGERVRSLKQQKASAELIEEEVAKLLKLKAQL [G13S]: the abundance fitness is 0.154 ± 0.082.
With EELVKLQGERVRKLKQQKASAELIEEEVAKLLKLKAQL [G13K], the abundance fitness is 0.168 ± 0.094.
For EELVKLQGERVRNLKQQKASAELIEEEVAKLLKLKAQL [G13N], the abundance fitness stood at 0.307 ± 0.19.
To EELVKLQGERVRGLKQHKASAELIEEEVAKLLKLKAQL [Q17H] belongs -0.446 ± 0.19; to EELVKLQGERVRGLKQLKASAELIEEEVAKLLKLKAQL [Q17L], -0.232 ± 0.073; to EELVKLQGERVRGLKQWKASAELIEEEVAKLLKLKAQL [Q17W], -0.5 ± 0.18.
To EELVKLQGERVRGLKQPKASAELIEEEVAKLLKLKAQL [Q17P] belongs -0.369 ± 0.13.
As to EELVKLQGERVRGLKQVKASAELIEEEVAKLLKLKAQL [Q17V], the abundance fitness was -0.258 ± 0.094.
The result for EELVKLQGERVRGLKQSKASAELIEEEVAKLLKLKAQL [Q17S] reads 0.055 ± 0.084; that for EELVKLQGERVRGLKQRKASAELIEEEVAKLLKLKAQL [Q17R], -0.196 ± 0.073; that for EELVKLQGERVRGLKQGKASAELIEEEVAKLLKLKAQL [Q17G], -0.071 ± 0.08.
To EELVKLQGERVRGLKQIKASAELIEEEVAKLLKLKAQL [Q17I] belongs -0.388 ± 0.091; to EELVKLQGERVRGLKQMKASAELIEEEVAKLLKLKAQL [Q17M], 0.052 ± 0.11; to EELVKLQGERVRGLKQDKASAELIEEEVAKLLKLKAQL [Q17D], -0.11 ± 0.12.
The result for EELVKLQGERVRGLKQFKASAELIEEEVAKLLKLKAQL [Q17F] reads -0.396 ± 0.085; that for EELVKLQGERVRGLKFQKASAELIEEEVAKLLKLKAQL [Q16F], -0.397 ± 0.08; that for EELVKLQGERVRGLKHQKASAELIEEEVAKLLKLKAQL [Q16H], -0.134 ± 0.095.
As to EELVKLQGERVRGLKIQKASAELIEEEVAKLLKLKAQL [Q16I], the abundance fitness was -0.227 ± 0.076.
To EELVKLQGERVRGLKEQKASAELIEEEVAKLLKLKAQL [Q16E] belongs 0.132 ± 0.095; to EELVKLQGERVRGLKNQKASAELIEEEVAKLLKLKAQL [Q16N], 0.076 ± 0.1; to EELVKLQGERVRGLKLQKASAELIEEEVAKLLKLKAQL [Q16L], -0.057 ± 0.072.
To EELVKLQGERVRGLKGQKASAELIEEEVAKLLKLKAQL [Q16G] belongs -0.242 ± 0.079; to EELVKLQGERVRGLKDQKASAELIEEEVAKLLKLKAQL [Q16D], 0.083 ± 0.12; to EELVKLQGERVRGLKMQKASAELIEEEVAKLLKLKAQL [Q16M], 0.028 ± 0.078.
Regarding EELVKLQGERVRGLKVQKASAELIEEEVAKLLKLKAQL [Q16V], the abundance fitness was -0.039 ± 0.1.
To EELVKLQGERVRGLKKQKASAELIEEEVAKLLKLKAQL [Q16K] belongs -0.004 ± 0.085.
The result for EELVKLQGERVRGLKPQKASAELIEEEVAKLLKLKAQL [Q16P] reads -0.223 ± 0.089; that for EELVKLQGERVRGLKWQKASAELIEEEVAKLLKLKAQL [Q16W], -0.483 ± 0.12.
Regarding EELVKLQGERVRGLKAQKASAELIEEEVAKLLKLKAQL [Q16A], the abundance fitness amounted to 0.144 ± 0.083.
The result for EELVKLQGERVRGLKTQKASAELIEEEVAKLLKLKAQL [Q16T] reads -0.08 ± 0.095; that for EELVKLQGERVRGLKRQKASAELIEEEVAKLLKLKAQL [Q16R], -0.11 ± 0.082; that for EELVKLQGERVRGLKSQKASAELIEEEVAKLLKLKAQL [Q16S], -0.004 ± 0.078.
To EELVKLQGERVRGLKCQKASAELIEEEVAKLLKLKAQL [Q16C] belongs -0.288 ± 0.096.
For EELVKLQGERVRGLKYQKASAELIEEEVAKLLKLKAQL [Q16Y], the abundance fitness is -0.427 ± 0.11.
As to EELVKLQGERVRGQKQQKASAELIEEEVAKLLKLKAQL [L14Q], the abundance fitness is -0.173 ± 0.11.
Regarding EELVKLQGERVRGPKQQKASAELIEEEVAKLLKLKAQL [L14P], the abundance fitness was -0.248 ± 0.088.
Consider EELVKLQGERVRGRKQQKASAELIEEEVAKLLKLKAQL [L14R], for which the abundance fitness is -0.332 ± 0.08.
The result for EELVKLQGERVRGMKQQKASAELIEEEVAKLLKLKAQL [L14M] reads 0.053 ± 0.082.
The result for EELVKLQGERVRGWKQQKASAELIEEEVAKLLKLKAQL [L14W] reads -0.467 ± 0.1.
To EELVKLQGERVRGYKQQKASAELIEEEVAKLLKLKAQL [L14Y] belongs -0.458 ± 0.14.
Take EELVKLQGERVRGDKQQKASAELIEEEVAKLLKLKAQL [L14D]: the abundance fitness was -0.24 ± 0.1.
The result for EELVKLQGERVRGCKQQKASAELIEEEVAKLLKLKAQL [L14C] reads -0.119 ± 0.11; that for EELVKLQGERVRGNKQQKASAELIEEEVAKLLKLKAQL [L14N], -0.479 ± 0.14.
Consider EELVKLQGERVRGTKQQKASAELIEEEVAKLLKLKAQL [L14T], for which the abundance fitness was -0.334 ± 0.1.
To EELVKLQGERVRGGKQQKASAELIEEEVAKLLKLKAQL [L14G] belongs -0.184 ± 0.078.
The result for EELVKLQGERVRGKKQQKASAELIEEEVAKLLKLKAQL [L14K] reads -0.209 ± 0.12; that for EELVKLQGERVRGSKQQKASAELIEEEVAKLLKLKAQL [L14S], -0.101 ± 0.077.
In the case of EELVKLQGERVRGEKQQKASAELIEEEVAKLLKLKAQL [L14E], the abundance fitness stood at 0.053 ± 0.1.
To EELVKLQGERVRGFKQQKASAELIEEEVAKLLKLKAQL [L14F] belongs -0.4 ± 0.13; to EELVKLQGERVRGAKQQKASAELIEEEVAKLLKLKAQL [L14A], 0.064 ± 0.088.
